{
  "source": "patent US20250121082A1",
  "about": "(SHANDONG BOAN BIOTECHNOLOGY, published 2025)",
  "key": {"[1]": {"molecular_target": "T1, Human CD228 protein (human, UniProt P08582 20-708, limits assumed)", "T1 construct": "Recombinant protein made in CHO cells, purified over a Ni column; The printed entry begins with the leader (MRGPSG...) and ends with ten His; also called hCD228; CD228-His protein", "T1 sequence": "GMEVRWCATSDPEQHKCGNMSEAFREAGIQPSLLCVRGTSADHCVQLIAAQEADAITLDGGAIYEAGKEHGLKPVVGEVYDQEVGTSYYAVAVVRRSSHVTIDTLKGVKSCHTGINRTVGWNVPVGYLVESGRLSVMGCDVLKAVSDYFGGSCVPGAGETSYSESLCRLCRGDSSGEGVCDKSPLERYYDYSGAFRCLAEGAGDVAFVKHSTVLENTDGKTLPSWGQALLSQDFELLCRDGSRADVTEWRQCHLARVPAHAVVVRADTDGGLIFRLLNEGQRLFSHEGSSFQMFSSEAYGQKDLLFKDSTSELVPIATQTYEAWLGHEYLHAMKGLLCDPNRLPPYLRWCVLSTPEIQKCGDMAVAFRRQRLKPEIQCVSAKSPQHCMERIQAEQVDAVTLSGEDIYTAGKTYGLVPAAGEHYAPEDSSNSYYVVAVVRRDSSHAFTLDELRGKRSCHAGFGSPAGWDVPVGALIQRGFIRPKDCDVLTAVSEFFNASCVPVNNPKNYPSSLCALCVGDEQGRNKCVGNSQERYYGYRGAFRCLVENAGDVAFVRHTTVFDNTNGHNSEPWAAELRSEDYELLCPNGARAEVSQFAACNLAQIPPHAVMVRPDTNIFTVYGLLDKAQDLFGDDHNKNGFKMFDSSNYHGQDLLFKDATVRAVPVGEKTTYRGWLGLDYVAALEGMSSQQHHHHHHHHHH", "assay": "Octet competition on His-chip CD228; competitor: CA518", "description": "(§1) CD228 proteins were immobilized on His chips at 10 μg/mL with a threshold of 0.5 nm. The first CD228 antibody (30 μg/mL) was immobilized, and the competitive binding of the second CD228 antibody (30 μg/mL) was analyzed. The Octet 8K system was used to analyze the response of antibody 2 and to determine whether antibody 1 and antibody 2 were in competition.\n(§2) The final competition analysis was conducted using the following calculation method: 1—response value/blank value."}, "[2]": {"molecular_target": "T1, Human CD228 protein", "assay": "Octet competition on His-chip CD228; competitor: CA67", "description": "as §1"}, "[3]": {"molecular_target": "T1, Human CD228 protein", "assay": "Octet competition on His-chip CD228; competitor: hl49", "description": "as §1, §2"}, "[4]": {"molecular_target": "T1, Human CD228 protein", "assay": "Octet competition on His-chip CD228; competitor: CA518", "description": "as §1", "remark": "listed apart in the source"}, "[5]": {"molecular_target": "T2, Mouse CD228 protein (mouse, UniProt Q9R0R1 20-708, limits assumed)", "T2 construct": "Recombinant His-tagged protein from CHO cells", "T2 chain": "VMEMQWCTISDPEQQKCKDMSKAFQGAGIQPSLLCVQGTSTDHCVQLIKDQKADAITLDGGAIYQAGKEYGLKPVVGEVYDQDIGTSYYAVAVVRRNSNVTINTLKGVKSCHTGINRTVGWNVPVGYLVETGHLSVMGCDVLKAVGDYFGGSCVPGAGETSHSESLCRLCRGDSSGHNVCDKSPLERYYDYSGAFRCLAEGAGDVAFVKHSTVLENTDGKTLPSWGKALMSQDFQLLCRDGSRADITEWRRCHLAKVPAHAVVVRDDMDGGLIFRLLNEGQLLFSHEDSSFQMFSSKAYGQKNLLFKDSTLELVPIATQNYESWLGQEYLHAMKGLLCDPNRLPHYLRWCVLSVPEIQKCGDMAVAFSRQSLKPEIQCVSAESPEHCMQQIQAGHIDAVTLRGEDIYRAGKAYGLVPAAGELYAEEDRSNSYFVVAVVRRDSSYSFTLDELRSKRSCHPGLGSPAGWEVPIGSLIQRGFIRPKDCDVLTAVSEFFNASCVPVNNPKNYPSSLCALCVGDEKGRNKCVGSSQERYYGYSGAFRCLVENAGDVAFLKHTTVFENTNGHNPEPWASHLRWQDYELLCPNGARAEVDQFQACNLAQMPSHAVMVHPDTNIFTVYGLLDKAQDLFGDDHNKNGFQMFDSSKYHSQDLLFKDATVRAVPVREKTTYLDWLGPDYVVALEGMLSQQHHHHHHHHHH", "assay": "SPR, BIAcore 8K; antibody on ProA chip, CD228 protein as analyte", "description": "The binding kinetics of the antibodies to the CD228 proteins was measured using the BIAcore 8K system based on surface plasmon resonance (SRP). CD228 antibodies were immobilized on ProA chips at a concentration of 2 μg/mL, and the binding activity of the CD228 antibodies to human, monkey, and mouse CD228 proteins was analyzed. Human, monkey and mouse CD228 proteins were serially 2-fold diluted from 50 nM to 5 concentrations with an HBS-EP+ buffer. The binding kinetics of the CD228 proteins were analyzed by Biacore, and the affinity activity KD values were calculated by fitting."}, "[6]": {"molecular_target": "T1, Human CD228 protein", "assay": "Octet competition on His-chip CD228; competitor: CA13", "description": "as §1, §2"}, "[7]": {"molecular_target": "T1, Human CD228 protein", "assay": "Octet competition on His-chip CD228; competitor: CA149", "description": "as §1"}, "[8]": {"molecular_target": "T1, Human CD228 protein", "assay": "Octet, CD228 on His chip; PBST buffer in place of the first antibody", "description": "as §1"}, "[9]": {"molecular_target": "T1, Human CD228 protein", "assay": "Octet competition on His-chip CD228; competitor: hl49", "description": "as §1", "remark": "listed apart in the source"}, "[10]": {"molecular_target": "T1, Human CD228 protein", "assay": "Octet competition on His-chip CD228; competitor: CA13", "description": "as §1", "remark": "listed apart in the source"}, "[11]": {"molecular_target": "T1, Human CD228 protein", "assay": "Octet competition on His-chip CD228; competitor: CA185", "description": "as §1, §2"}, "[12]": {"molecular_target": "T1, Human CD228 protein", "assay": "Octet competition on His-chip CD228; competitor: CA185", "description": "as §1", "remark": "listed apart in the source"}},
  "data": [
    {"binder": "reference antibody hL49 (antibody, human IgG1, kappa, V domains shown, also called H149; hL49 analogy) VH: QVQLQESGPGLVKPSETLSLTCTVSGDSITSGYWNWIRQPPGKGLEYIGYISDSGITYYNPSLKSRVTISRDTSKNQYSLKLSSVTAADTAVYYCARRTLATYYAMDYWGQGTLVTVSS VL: DFVMTQSPLSLPVTLGQPASISCRASQSLVHSDGNTYLHWYQQRPGQSPRLLIYRVSNRFSGVPDRFSGSGSGTDFTLKISRVEAEDVGVYYCSQSTHVPPTFGQGTKLEIKR", "values": [
      {"measurement": "competition (1-response value/blank value)", "setting": "[1]", "result": -3, "unit": "%"},
      {"measurement": "Octet response value", "setting": "[2]", "result": 0.456},
      {"measurement": "competition (1-response value/blank value)", "setting": "[3]", "result": 95, "unit": "%"},
      {"measurement": "Octet response value", "setting": "[4]", "result": 0.456},
      {"measurement": "binding result", "setting": "[5]", "result": "no binding"},
      {"measurement": "competition (1-response value/blank value)", "setting": "[6]", "result": -6, "unit": "%"},
      {"measurement": "Octet response value", "setting": "[7]", "result": 0.435},
      {"measurement": "Octet response value (blank value, PBST buffer)", "setting": "[8]", "result": 0.347},
      {"measurement": "Octet response value", "setting": "[9]", "result": 0.0169},
      {"measurement": "Octet response value", "setting": "[10]", "result": 0.418},
      {"measurement": "competition (1-response value/blank value)", "setting": "[11]", "result": -5, "unit": "%"},
      {"measurement": "Octet response value", "setting": "[12]", "result": 0.432}
    ]}
  ]
}
